Data on 1 molecule can be found in paper PMC5554458 (Cellular signalling, 2017).

As usually defined, the Ki is a measure of affinity in units of concentration, obtained from inhibition or displacement.

Targets include PDE6C-H262N (human, UniProt P51160 1-858, H262N); PDE6C-Y323N (human, UniProt P51160 1-858, Y323N); PDE6C-L858V (human, UniProt P51160 1-858, L858V, farnesyl on the Cys of the C-terminal CAAX box (farnesylated PDE6C-L858V)).
Test in all cases: inhibition of enzyme activity

Sequence of PDE6C-L858V (P51160 whole entry L858V): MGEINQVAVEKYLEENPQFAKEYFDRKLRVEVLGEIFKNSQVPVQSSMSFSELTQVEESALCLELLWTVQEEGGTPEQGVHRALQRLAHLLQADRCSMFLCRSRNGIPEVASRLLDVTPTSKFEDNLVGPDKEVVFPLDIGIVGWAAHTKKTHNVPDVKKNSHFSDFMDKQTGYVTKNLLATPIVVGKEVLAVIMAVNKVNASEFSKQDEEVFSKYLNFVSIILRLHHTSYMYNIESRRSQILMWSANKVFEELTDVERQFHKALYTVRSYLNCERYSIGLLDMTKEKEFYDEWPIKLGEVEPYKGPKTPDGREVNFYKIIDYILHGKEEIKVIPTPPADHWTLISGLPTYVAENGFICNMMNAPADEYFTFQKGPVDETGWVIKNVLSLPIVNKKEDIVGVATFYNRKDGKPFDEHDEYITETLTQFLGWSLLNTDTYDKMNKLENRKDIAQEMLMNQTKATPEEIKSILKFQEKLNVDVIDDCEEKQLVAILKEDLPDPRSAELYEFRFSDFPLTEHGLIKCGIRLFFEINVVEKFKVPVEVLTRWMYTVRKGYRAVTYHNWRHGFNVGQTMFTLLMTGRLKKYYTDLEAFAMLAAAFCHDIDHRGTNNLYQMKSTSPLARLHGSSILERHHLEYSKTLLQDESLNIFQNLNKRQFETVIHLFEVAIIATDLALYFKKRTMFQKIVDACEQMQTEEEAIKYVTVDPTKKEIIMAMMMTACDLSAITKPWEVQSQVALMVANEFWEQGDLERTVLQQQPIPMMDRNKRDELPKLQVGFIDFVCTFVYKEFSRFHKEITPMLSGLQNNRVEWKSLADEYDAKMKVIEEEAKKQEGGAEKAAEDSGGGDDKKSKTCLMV
Sequence of PDE6C-Y323N (P51160 whole entry Y323N): as the sequence (P51160 whole entry L858V) above, with Y323N, V858L counted along it
Sequence of PDE6C-H262N (P51160 whole entry H262N): as the sequence (P51160 whole entry L858V) above, with H262N, V858L counted along it

B1: bovine rod Pγ (natural protein, UniProt P04972 1-87, looked up)
chain: MNLEPPKAEIRSATRVMGGPVTPRKGPPKFKQRQTRQFKSKPPKKGVQGFGDDIPGMEGLGTDITVICPWEAFNHLELHELAQYGII
For B1, the inhibitory constant (Ki) with PDE6C-H262N is 222 pM; in the experiment with PDE6C-Y323N, 176 pM; with PDE6C-L858V, 114 pM.
